Assay [1] deals with pertactin ectodomain (Prn-E) (Bordetella (species not stated)). Description: isothermal titration calorimetry (ITC).
For assay [2] the target is unchanged. The assay is described as follows: static light scattering.

As to “Mtd-P1 (major tropism determinant variant of Bordetella bacteriophage BPP-1) (from UniProt Q775D6 1-381)”, the equilibrium dissociation constant (Kd) in assay [1] worked out at 3 µM. In addition, the stoichiometry of association between Mtd and Prn-E (Mtd monomers per Prn-E (ratio 3:1)) in assay [2] came out at 3.

What is called Kd is the equilibrium constant for the complex coming apart.
